# Data published in IntAct's records for PubMed 15901672.
# B1: Phorbol-12-myristate-13-acetate-induced protein 1 (Homo sapiens), Q13794 (parent)
# chain: MPGKKARKNAQPSPARAPAELEVECATQLRRFGDKLNFRQKLLNLISKLFCSGT
# B2: Bcl-2 homologous antagonist/killer (Homo sapiens), Q16611 (parent)
# chain: MASGQGPGPPRQECGEPALPSASEEQVAQDTEEVFRSYVFYRHQQEQEAEGVAAPADPEMVTLPLQPSSTMGQVGRQLAIIGDDINRRYDSEFQTMLQHLQPTAENAYEYFTKIATSLFESGINWGRVVALLGFGYRLALHVYQHGLTGFLGQVTRFVVDFMLHHCIARWIAQRGGWVAALNLGNGPILNVLVVLGVVLLGQFVVRRFFKS
# Variants of: B1
# Details: with mcl1_human MCL1, Q07820
row,effect of a mutation on the interaction,Variant
1,decreasing interaction,MPGKKARKNAQPSPARAPAELEVECATQLRREGDKLNFRQKLLNLISKLFCSGT [F32E]
2,decreasing interaction,MPGKKARKNAQPSPARAPAELEVECATQLRRFGDKENFRQKLLNLISKLFCSGT [L36E]
3,decreasing interaction,MPGKKARKNAQPSPARAPAELEVECATQERRFGDKLNFRQKLLNLISKLFCSGT [L29E]

# Variants of: B2
# Details: with mcl1_mouse Mcl1, P97287
# mcl1_mouse Mcl1, P97287, sequence (P97287 whole entry): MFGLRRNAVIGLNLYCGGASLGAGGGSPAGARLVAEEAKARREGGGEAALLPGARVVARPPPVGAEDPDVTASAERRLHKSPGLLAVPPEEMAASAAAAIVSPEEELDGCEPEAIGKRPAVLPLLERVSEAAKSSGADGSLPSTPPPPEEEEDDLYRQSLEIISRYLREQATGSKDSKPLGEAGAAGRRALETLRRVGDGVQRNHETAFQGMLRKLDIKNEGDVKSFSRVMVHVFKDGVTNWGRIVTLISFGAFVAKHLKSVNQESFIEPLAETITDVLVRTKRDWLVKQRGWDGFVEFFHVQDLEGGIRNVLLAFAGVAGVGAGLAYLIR
row,effect of a mutation on the interaction,Variant
1,decreasing interaction,MASGQGPGPPRQECGEPALPSASEEQVAQDTEEVFRSYVFYRHQQEQEAEGVAAPADPEMVTLPLQPSSTMGQVGRQAAIIGDDINRRYDSEFQTMLQHLQPTAENAYEYFTKIATSLFESGINWGRVVALLGFGYRLALHVYQHGLTGFLGQVTRFVVDFMLHHCIARWIAQRGGWVAALNLGNGPILNVLVVLGVVLLGQFVVRRFFKS [L78A]

# Variants of: B2
# Details: with mcl1_human MCL1, Q07820
# Target sequence in this assay (Q07820 whole entry): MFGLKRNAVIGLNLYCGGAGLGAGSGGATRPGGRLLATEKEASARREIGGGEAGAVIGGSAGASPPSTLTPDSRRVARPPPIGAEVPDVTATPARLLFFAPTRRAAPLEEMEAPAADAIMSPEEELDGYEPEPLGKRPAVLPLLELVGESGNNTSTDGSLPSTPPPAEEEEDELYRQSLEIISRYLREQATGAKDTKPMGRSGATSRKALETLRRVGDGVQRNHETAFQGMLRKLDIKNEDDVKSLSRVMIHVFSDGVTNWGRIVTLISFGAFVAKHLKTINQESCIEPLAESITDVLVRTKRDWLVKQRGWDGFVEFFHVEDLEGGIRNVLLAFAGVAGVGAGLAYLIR
row,effect of a mutation on the interaction,Variant
1,decreasing interaction,MASGQGPGPPRQECGEPALPSASEEQVAQDTEEVFRSYVFYRHQQEQEAEGVAAPADPEMVTLPLQPSSTMGQVGRQAAIIGDDINRRYDSEFQTMLQHLQPTAENAYEYFTKIATSLFESGINWGRVVALLGFGYRLALHVYQHGLTGFLGQVTRFVVDFMLHHCIARWIAQRGGWVAALNLGNGPILNVLVVLGVVLLGQFVVRRFFKS [L78A]

# Variants of: B2
# Details: with bax_human BAX
row,effect of a mutation on the interaction,Variant
1,decreasing interaction,MASGQGPGPPRQECGEPALPSASEEQVAQDTEEVFRSYVFYRHQQEQEAEGVAAPADPEMVTLPLQPSSTMGQVGRQAAIIGDDINRRYDSEFQTMLQHLQPTAENAYEYFTKIATSLFESGINWGRVVALLGFGYRLALHVYQHGLTGFLGQVTRFVVDFMLHHCIARWIAQRGGWVAALNLGNGPILNVLVVLGVVLLGQFVVRRFFKS [L78A]
